From patent US20090053213A1 (MorphoSys, published 2009)

Tests used:
human GM-CSF [1] = molecular target: T1, human GM-CSF (human, UniProt P04141 18-144); assay: cell-based or functional assay
human GM-CSF [2] = molecular target: T1, human GM-CSF; assay: solution equilibrium titration (SET, ECL/BioVeris), Fab with human GM-CSF (Leucomax) in solution
human GM-CSF [3] = molecular target: T1, human GM-CSF; assay: cell-based or functional assay; remark: listed apart in the source
human GM-CSF [4] = molecular target: T1, human GM-CSF; assay: SPR (Biacore), Fab over immobilized recombinant human GM-CSF (Peprotech), F1 chip; affinity estimated from off-rates
Method: A respective amount of HSA was immobilized on the reference flow cell. […] Fab was applied in concentration series of 6.3-200 nM at a flow rate of 20 μl/min.

human GM-CSF [5] = molecular target: T1, human GM-CSF; assay: FACS receptor inhibition assay: antibody pre-incubated with 0.5 µg/ml biotinylated GM-CSF, binding to GM-CSF receptor alpha on CHO-GMRa#11 cells
Method: (§1) All stainings were performed in round bottom 96-well culture plates (Nalge Nunc) with 1-5×10⁵ cells per well. […] Cells were then washed once with 150 μl FACS buffer/well and taken up in 100 μl phycoerythrin-labeled streptavidin (BD Biosciences Pharmingen) which has been diluted 1:400 in FACS buffer. […] IC₅₀ values were determined from the dose response curves obtained using GraphPad Prism v3.03 software applying a non-linear regression curve fit.
(§2) IC₅₀ values were determined from the dose response curves obtained using GraphPad Prism v3.03 software applying a non-linear regression curve fit.

human GM-CSF [6] = molecular target: T1, human GM-CSF; assay: FACS receptor inhibition assay: inhibition of binding of 0.5 µg/ml biotinylated GM-CSF to GM-CSF receptor alpha on CHO-GMRa#11 cells
Method: as §1, §2

human GM-CSF [7] = molecular target: T1, human GM-CSF; assay: cell-based or functional assay; remark: listed apart in the source

T1 sequence (P04141 18-144): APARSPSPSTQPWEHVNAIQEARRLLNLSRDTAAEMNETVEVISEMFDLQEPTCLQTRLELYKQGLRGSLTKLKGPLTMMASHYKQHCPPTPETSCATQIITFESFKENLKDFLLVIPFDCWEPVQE

Row | IC50 (pM) in TF-1 proliferation assay, human GM-CSF (human GM-CSF [1]) | Kd (human GM-CSF [2]) | IC50 (pM) in TF-1 proliferation assay, human GM-CSF 0.25 ng/ml (human GM-CSF [3]) | IC50 x-fold improved compared to BVD2-21C11, TF-1 proliferation assay (human GM-CSF [3]) | IC50 x-fold improved compared to Mab215, TF-1 proliferation assay (human GM-CSF [3]) | Kd (human GM-CSF [4]) | IC50 (human GM-CSF [5]) | % inhibition at 5 µg/ml antibody (human GM-CSF [6]) | fold improvement of IC50 in TF-1 proliferation assay compared to parental MOR03929 (human GM-CSF [7]) | Binder
1 | 17300 pM | 113 pM |  |  |  |  |  |  |  | MOR04283 Fab (Fab, V domains shown, Fab with FLAG and 6xHis tags) VH: QVQLVQSGAEVKKPGSSVKVSCKASGGTFNSFLISWVRQAPGQGLEWMGAISPWDGVTGYAQKFQGRVTITADESTSTAYMELSSLRSEDTAVYYCARKFISDSWGQGTLVTVSS VL: DIQMTQSPSSLSASVGDRVTITCRASQTINNYLNWYQQKPGKAPKLLIYTASNLQSGVPSRFSGSGSGTDFTLTISSLQPEDFAVYYCQQYSGSPMTFGQGTKVEIKR
2 | 80 pM | 4.9 pM |  |  |  |  |  |  |  | MOR04342 Fab (Fab, V domains shown, X-cloned Fab (VH of MOR04283 x VL of MOR04297) with FLAG and 6xHis tags) VH: QVQLVQSGAEVKKPGSSVKVSCKASGGTFNSFLISWVRQAPGQGLEWMGAISPWDGVTGYAQKFQGRVTITADESTSTAYMELSSLRSEDTAVYYCARKFISDSWGQGTLVTVSS VL: DIQMTQSPSSLSASVGDRVTITCRASQTINNYLNWYQQKPGKAPKLLIYTASNLQSGVPSRFSGSGSGTDFTLTISSLQPEDFATYYCQQYSWVPHTFGQGTKVEIKR
3 | 14000 pM | 49.2 pM |  |  |  |  |  |  |  | MOR04297 Fab (Fab, V domains shown, Fab with FLAG and 6xHis tags) VH: QVQLVQSGAEVKKPGSSVKVSCKASGGTFNSFLISWVRQAPGQGLEWMGGIIPIFGTANYAQKFQGRVTITADESTSTAYMELSSLRSEDTAVYYCARKFISDSWGQGTLVTVSS VL: DIQMTQSPSSLSASVGDRVTITCRASQTINNYLNWYQQKPGKAPKLLIYTASNLQSGVPSRFSGSGSGTDFTLTISSLQPEDFATYYCQQYSWVPHTFGQGTKVEIKR
4 |  | 7.4 pM | 463 pM | 14.2 fold | 9.3 fold | 70 pM | 53000 pM | ~100% |  | MOR04251 Fab (Fab, V domains shown) VH: QVQLVESGGGLVQPGGSLRLSCAASGFTFSSHWMSWVRQAPGKGLEWVSNIWRGPYIYYADSVKGRFTISRDNSKNTLYLQMNSLRAEDTAVYYCARFQGYGGGFDYWGQGTLVTVSS VL: DIELTQPPSVSVAPGQTARISCSGDNLPGKYVHWYQQKPGQAPVLVIYYDSNRPSGIPERFSGSNSGNTATLTISGTQAEDEADYYCQSRTQTTIVFGGGTKLTVLG
5 |  | 6 pM | 2010 pM | 3.2 fold | 2.1 fold | 55 pM | 26000 pM | ~75% |  | MOR04252 Fab (Fab, V domains shown, Fab with FLAG and 6xHis tags) VH: QVQLVESGGGLVQPGGSLRLSCAASGFTFSSYWMNWVRQAPGKGLEWVSGIENKYAGGATYYAASVKGRFTISRDNSKNTLYLQMNSLRAEDTAVYYCARGFGTDFWGQGTLVTVSS VL: DIELTQPPSVSVAPGQTARISCSGDSIGKKYAYWYQQKPGQAPVLVIYKKRPSGIPERFSGSNSGNTATLTISGTQAEDEADYYCSSWDSTGLVFGGGTKLTVLG
6 |  | 17.9 pM | 3380 pM | 1.9 fold | 1.3 fold |  | 25000 pM | ~75% |  | MOR04287 Fab (Fab, V domains shown, Fab with FLAG and 6xHis tags) VH: QVQLVESGGGLVQPGGSLRLSCAASGFTFSSYWMNWVRQAPGKGLEWVSGIENKRAGGATFYAASVKGRFTISRDNSKNTLYLQMNSLRAEDTAVYYCARGFGTDFWGQGTLVTVSS VL: DIELTQPPSVSVAPGQTARISCSGDSIGKKYAYWYQQKPGQAPVLVIYKKRPSGIPERFSGSNSGNTATLTISGTQAEDEADYYCSSWDSTGLVFGGGTKLTVLG
7 |  | 11.1 pM | 696 pM | 9.4 fold | 6.2 fold | 122 pM | 27000 pM | ~75% |  | MOR04290 Fab (Fab, V domains shown, Fab with FLAG and 6xHis tags) VH: QVQLVESGGGLVQPGGSLRLSCAASGFTFSSYWMNWVRQAPGKGLEWVSGIESKWAGGATYYAAGVKGRFTISRDNSKNTLYLQMNSLRAEDTAVYYCARGFGTDFWGQGTLVTVSS VL: DIELTQPPSVSVAPGQTARISCSGDSIGKKYAYWYQQKPGQAPVLVIYKKRPSGIPERFSGSNSGNTATLTISGTQAEDEADYYCSSWDSTGLVFGGGTKLTVLG
8 |  | 63.5 pM | 10700 pM |  |  | 174 pM | 24000 pM | ~75% |  | MOR04302 Fab (Fab, V domains shown, Fab with FLAG and 6xHis tags) VH: QVQLVESGGGLVQPGGSLRLSCAASGFTFSSYWMNWVRQAPGKGLEWVSGISYSGSETYYADSVKGRFTISRDNSKNTLYLQMNSLRAEDTAVYYCARGFGTDFWGQGTLVTVSS VL: DIELTQPPSVSVAPGQTARISCSGDSIGKKYAYWYQQKPGQAPVLVIYKKRPSGIPERFSGSNSGNTATLTISGTQAEDEADYYCSAWGDKGMVFGGGTKLTVLG
9 |  | 1.1 pM | 82 pM | 80 fold | 52.6 fold | 19 pM | 24000 pM | ~75% | > 2000 fold | MOR04350 Fab (Fab, V domains shown, X-cloned Fab (VH of MOR04287 x VL of MOR04302) with FLAG and 6xHis tags) VH: QVQLVESGGGLVQPGGSLRLSCAASGFTFSSYWMNWVRQAPGKGLEWVSGIENKRAGGATFYAASVKGRFTISRDNSKNTLYLQMNSLRAEDTAVYYCARGFGTDFWGQGTLVTVSS VL: DIELTQPPSVSVAPGQTARISCSGDSIGKKYAYWYQQKPGQAPVLVIYKKRPSGIPERFSGSNSGNTATLTISGTQAEDEADYYCSAWGDKGMVFGGGTKLTVLG
10 |  | 2.8 pM | 56 pM | 117 fold | 77.1 fold | 21 pM | 26000 pM | ~75% | > 2000 fold | MOR04354 Fab (Fab, V domains shown, X-cloned Fab (VH of MOR04290 x VL of MOR04302) with FLAG and 6xHis tags) VH: QVQLVESGGGLVQPGGSLRLSCAASGFTFSSYWMNWVRQAPGKGLEWVSGIESKWAGGATYYAAGVKGRFTISRDNSKNTLYLQMNSLRAEDTAVYYCARGFGTDFWGQGTLVTVSS VL: DIELTQPPSVSVAPGQTARISCSGDSIGKKYAYWYQQKPGQAPVLVIYKKRPSGIPERFSGSNSGNTATLTISGTQAEDEADYYCSAWGDKGMVFGGGTKLTVLG
